# B1: 39S antibody (antibody, V domains shown)
# VH: EVQLVESGGGLVKPGGSLRLSCAASGFTFSSYSMSWVRQAPGKGLEWVSSISSSSSYIYYADSVKGRFTISRDNAKNSLYLQMNSLRAEDTAVYYCARGGDAYNYYYFDYWGQGTLVTVSS
# VL: DIVMTQTPLSLSVTPGQPASISCKSSQSVFFRSNNKNILAWYLQKPGQPPQLLIYWASSRESGVPDRFSGSGSGTDFTLKISRVEAEDVGVYYCQQYFGSPFTFGPGTKVDIK
# Legend:
# KI_II (mouse; human) [1] = biological target: KI_II (mouse; human) (UniProt P70424); assay: SPR (ProteOn), variant captured, 39S injected; apparent affinity
# KI_II (mouse; human) [2] = biological target: KI_II (mouse; human) (UniProt P70424); assay: SPR (ProteOn XPR36), variant captured by anti-Her2 polyclonal antibody, 39S injected; apparent affinity
# KO_I (mouse; human) = KO_I (mouse; human) (UniProt P70424); assay: as above
binder,measurement,setting,value
B1,Kd,KI_II (mouse; human) [1],0.168 nM
same,Kd,KI_II (mouse; human) [2],0.163 nM
same,Kd,KO_I (mouse; human),0.095 nM

# — US20170291955A1
